The values that follow come from PMC3366968, “Functional Characterization of a First Avian Cytochrome P450 of the CYP2D Subfamily (CYP2D49)” (PLoS ONE, 2012).

Substrate in this data set: CCc1cccc2cc(C(O)CNC(C)(C)C)oc12
The experiment in a line: purified protein. Type of data set: biochemical, Gallus gallus. As to conditions: 2-200 µM bufuralol, NADPH, NADPH-P450 reductase, cytochrome b5, liposome, 10 mM MgCl2, 100 mM potassium phosphate pH 7.4, 37°C.

B1: CYP2D49 (Gallus gallus) (protein)
chain: MTLLLWLSSWSNISVLGVFLTVFTILVDFMKRRKKWSRYPPGPMPLPFVGTMPYVNYYNPHLSFEKFRKKFGNIFSLQNCWTNVVVLNGYKTVKEALVNKSEDFADRPYMPVYEHLGYGHKSEGLVLARYGHLWKELRKFTLTTLRNFGMGKKSLEERVTEEAGFLCSAISSEGGHPFDPRFLVNNAVCNVICTITYGERFDYGDKTFKKLLTLFENSLNEEAGFLPQLLNVAPVLLRIPGLPQKIFPCQKAYVDFTQMLIDKHKETWNPAYIRDFTDAFLKEMAKGKEAEENGFNKSNLTLVTADLLVAGSETTATTLRWAFLFMLLYPEIQSKVHKEIDKVIGRNRPPTMADQVNMPYTNAVIHEVQRFGDVVPMGLPHMTYRDTELQGFFIPKGTTIITNLTSVLKDETAWKKPNEFYPEHFLNENGQFVRPEAFLPFSAGRRACLGEQLTRMELFIFFTTLMQKFTFVFPEDQPRPREDSHFAFTNSPHPYQLRAVPR
notes: full-length 502-residue ORF, N-terminal ompA leader (21 aa) plus Leu-Glu spacer, Myc-His-tagged fusion, about 55 kDa, expressed in E. coli DH5alpha, purified by Ni-NTA
With B1, the Km is 3.948 ± 0.232 µM.

Usually Km stands for the concentration of substrate that gives half-maximal velocity.
